In US20130064836A1 (Novartis, published 2013):

Assays:
[1] = target: T1, cynomolgus C5 (Macaca fascicularis) (cynomolgus (Macaca fascicularis), Beta and alpha chains are joined by disulfide bonds; the protein is a serum glycoprotein.); experiment: solution ELISA: Fab with biotinylated antigen on NeutrAvidin plate, His-tag detection [cynoC5 panel]
T1 construct: also called cyno C5; cynoC5
T1 beta: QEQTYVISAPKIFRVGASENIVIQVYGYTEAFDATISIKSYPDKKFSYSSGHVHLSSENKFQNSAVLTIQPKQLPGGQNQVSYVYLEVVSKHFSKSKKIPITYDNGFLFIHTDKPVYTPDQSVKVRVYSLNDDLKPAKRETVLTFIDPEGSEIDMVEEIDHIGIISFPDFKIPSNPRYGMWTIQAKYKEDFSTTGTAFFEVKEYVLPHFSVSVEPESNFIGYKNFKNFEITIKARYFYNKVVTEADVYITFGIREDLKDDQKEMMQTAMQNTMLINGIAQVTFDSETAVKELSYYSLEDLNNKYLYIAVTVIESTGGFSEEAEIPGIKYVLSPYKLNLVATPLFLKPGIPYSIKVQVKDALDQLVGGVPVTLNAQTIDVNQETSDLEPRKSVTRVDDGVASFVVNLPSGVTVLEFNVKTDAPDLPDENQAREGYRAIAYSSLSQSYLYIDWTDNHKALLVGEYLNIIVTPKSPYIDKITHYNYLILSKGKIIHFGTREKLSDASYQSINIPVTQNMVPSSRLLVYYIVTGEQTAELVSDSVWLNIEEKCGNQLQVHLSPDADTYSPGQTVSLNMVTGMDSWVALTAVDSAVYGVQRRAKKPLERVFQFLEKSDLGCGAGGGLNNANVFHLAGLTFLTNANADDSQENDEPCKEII
T1 alpha: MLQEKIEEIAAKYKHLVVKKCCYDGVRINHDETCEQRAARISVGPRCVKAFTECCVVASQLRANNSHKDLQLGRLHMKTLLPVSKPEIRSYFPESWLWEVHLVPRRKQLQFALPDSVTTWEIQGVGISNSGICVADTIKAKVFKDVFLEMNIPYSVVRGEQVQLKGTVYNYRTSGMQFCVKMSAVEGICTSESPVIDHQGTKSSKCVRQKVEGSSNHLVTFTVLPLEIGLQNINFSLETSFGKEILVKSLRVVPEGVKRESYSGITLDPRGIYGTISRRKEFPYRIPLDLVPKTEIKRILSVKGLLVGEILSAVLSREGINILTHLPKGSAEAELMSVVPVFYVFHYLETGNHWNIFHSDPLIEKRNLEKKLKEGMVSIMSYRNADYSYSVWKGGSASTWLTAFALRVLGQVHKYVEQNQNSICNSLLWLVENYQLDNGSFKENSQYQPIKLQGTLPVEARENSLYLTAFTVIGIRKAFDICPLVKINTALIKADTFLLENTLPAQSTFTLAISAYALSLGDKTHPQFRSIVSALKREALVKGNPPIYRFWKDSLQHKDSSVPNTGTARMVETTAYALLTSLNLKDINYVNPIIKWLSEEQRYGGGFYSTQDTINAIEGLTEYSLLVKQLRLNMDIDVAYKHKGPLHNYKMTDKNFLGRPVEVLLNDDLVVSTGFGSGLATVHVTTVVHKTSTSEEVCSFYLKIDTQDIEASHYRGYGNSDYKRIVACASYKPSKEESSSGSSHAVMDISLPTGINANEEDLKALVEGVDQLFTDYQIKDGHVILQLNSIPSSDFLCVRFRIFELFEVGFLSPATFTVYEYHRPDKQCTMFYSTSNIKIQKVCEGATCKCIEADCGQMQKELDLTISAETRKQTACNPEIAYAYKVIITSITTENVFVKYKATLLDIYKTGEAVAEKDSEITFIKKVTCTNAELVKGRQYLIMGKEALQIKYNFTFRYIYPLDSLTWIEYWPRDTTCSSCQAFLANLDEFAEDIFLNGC
Protocol: (§1) Fabs were incubated with biotinylated antigen on a Neutravidin plate and detected via the histidin tag.

[2] = target: T2, human complement C3 (human, UniProt P01024 23-667; P01024 672-1663); experiment: solution ELISA: Fab with biotinylated antigen on NeutrAvidin plate, His-tag detection [huC3 panel]
T2 construct: Counter target in the ELISAs, coated directly or biotinylated; also called human C3
Protocol: as §1

[3] = target: T3, human complement C5 protein (human, UniProt P01031 19-673; P01031 678-1676, Beta and alpha chains are joined by disulfide bonds. C5 was biotinylated in some assays.); experiment: cell-based or functional assay
[4] = target: T1, cynomolgus C5 (Macaca fascicularis); experiment: SET (MSD), purified Fab
Protocol: (§2) Streptavidin MSD plates were coated with 0.2 μg/ml biotinylated human C5 (30 μl/well) and blocked with 5% BSA in PBS. Subsequently the equilibrated samples were transferred to those plates (30 μl per well) and incubated for 20 min.

[5] = target: T3, human complement C5 protein; experiment: SET (MSD), purified Fab
Protocol: as §2

[6] = target: T1, cynomolgus C5 (Macaca fascicularis); experiment: cell-based or functional assay
[7] = target: T3, human complement C5 protein; experiment: cell-based or functional assay; remark: listed apart in the source
[8] = target: T3, human complement C5 protein; experiment: solution ELISA: Fab with biotinylated antigen on NeutrAvidin plate, His-tag detection [huC5 panel]
Protocol: as §1

T2 sequence (P01024 23-667 limits assumed, chain 1 of 2): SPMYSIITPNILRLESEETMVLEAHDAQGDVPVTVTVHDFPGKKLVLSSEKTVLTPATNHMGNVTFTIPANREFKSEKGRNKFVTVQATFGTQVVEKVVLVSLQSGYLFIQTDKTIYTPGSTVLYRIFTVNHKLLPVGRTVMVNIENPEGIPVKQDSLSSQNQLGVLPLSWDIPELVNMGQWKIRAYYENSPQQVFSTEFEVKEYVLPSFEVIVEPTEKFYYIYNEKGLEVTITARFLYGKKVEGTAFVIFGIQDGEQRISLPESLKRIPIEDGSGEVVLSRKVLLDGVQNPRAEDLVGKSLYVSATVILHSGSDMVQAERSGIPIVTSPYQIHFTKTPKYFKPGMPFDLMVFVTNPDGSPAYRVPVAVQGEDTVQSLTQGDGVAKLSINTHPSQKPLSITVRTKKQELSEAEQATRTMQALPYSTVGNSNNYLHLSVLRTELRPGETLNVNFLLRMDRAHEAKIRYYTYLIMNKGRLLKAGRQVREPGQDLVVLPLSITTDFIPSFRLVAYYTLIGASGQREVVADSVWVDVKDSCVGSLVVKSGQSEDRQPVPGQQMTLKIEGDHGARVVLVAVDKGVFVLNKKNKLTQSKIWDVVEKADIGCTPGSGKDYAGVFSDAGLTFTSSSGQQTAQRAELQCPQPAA
T2 sequence (P01024 672-1663 limits assumed, chain 2 of 2): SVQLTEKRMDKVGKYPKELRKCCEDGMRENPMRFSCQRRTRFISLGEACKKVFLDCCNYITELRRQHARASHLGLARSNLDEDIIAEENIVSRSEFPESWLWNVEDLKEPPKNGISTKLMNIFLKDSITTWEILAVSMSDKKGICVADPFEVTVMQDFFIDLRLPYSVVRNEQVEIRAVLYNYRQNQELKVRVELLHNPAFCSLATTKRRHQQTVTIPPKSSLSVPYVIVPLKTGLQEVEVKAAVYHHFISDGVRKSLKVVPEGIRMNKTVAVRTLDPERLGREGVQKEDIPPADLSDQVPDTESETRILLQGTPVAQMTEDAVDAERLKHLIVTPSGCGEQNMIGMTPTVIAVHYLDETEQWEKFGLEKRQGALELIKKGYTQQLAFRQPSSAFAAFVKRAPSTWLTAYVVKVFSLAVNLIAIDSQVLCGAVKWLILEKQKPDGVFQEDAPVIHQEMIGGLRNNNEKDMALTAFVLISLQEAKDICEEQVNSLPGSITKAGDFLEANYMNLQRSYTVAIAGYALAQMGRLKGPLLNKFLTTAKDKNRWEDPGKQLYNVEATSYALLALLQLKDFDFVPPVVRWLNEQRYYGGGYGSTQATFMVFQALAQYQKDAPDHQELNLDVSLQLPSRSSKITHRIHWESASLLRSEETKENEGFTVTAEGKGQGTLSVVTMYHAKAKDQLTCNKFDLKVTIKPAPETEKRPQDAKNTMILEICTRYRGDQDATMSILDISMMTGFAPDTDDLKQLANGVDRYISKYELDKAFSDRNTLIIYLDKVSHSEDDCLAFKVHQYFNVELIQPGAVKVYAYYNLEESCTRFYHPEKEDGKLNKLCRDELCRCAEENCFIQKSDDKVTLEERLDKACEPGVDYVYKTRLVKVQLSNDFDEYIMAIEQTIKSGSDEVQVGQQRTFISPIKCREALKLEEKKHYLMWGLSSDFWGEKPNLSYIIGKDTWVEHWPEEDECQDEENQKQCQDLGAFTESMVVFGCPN

B1: MOR07871 (Fab, V domains shown)
VH: QVQLVQSGAEVKKPGESLKISCKGSGYSFTSYYIGWVRQMPGKGLEWMGIIDPSDSHTTYSPSFQGQVTISADKSISTAYLQWSSLKASDTAMYYCARYMMRGFDHWGQGTLVTVSS
VL: DIELTQPPSVSVAPGQTARISCSGDSLGDYYAYWYQQKPGQAPVLVIYKDNNRPSGIPERFSGSNSGNTATLTISGTQAEDEADYYCQTWDTGESGVFGGGTKLTVLG
notes: light CS or A
EC50 [1]: 0.617 nM | binding result [2]: no binding (tested: 100 nM) | IC50; hemolysis AP, 100 pM human C5 [panel f] [3]: 54.5 pM | Kd [4]: 0.004 nM | Kd [5]: 0.003 nM | IC50; hemolysis AP, 100 pM cyno C5 in 20% human C5-depleted serum [panel a] [6]: 0.111 nM | IC50; hemolysis AP, 100 pM cyno C5 in 20% human C5-depleted serum [panel f] [6]: 0.137 nM | IC50; hemolysis AP, 100 pM human C5 [panel j] [7]: 36.6 pM | EC50 [8]: 0.849 nM
